Results taken from patent US20190010231A1 (Pieris, published 2019).

Tests used:
[1] = target: T1, human LAG-3-Fc fusion (human LAG-3 extracellular domain fused to human IgG1 Fc fragment, R&D Systems) (human, UniProt P18627 23-450, biotinylated in Example 5 (sites not given)); experiment: dual-binding ELISA: PD-1-His coated, antibody titrated from 250 nM, then biotinylated huLAG-3-Fc 2 ug/mL, detection Extravidin-HRP, RFU
T1 construct: extracellular domain; also called huLAG-3-Fc; biotinylated human LAG-3-Fc; not shown: human IgG1 Fc fragment
T1 sequence (looked up): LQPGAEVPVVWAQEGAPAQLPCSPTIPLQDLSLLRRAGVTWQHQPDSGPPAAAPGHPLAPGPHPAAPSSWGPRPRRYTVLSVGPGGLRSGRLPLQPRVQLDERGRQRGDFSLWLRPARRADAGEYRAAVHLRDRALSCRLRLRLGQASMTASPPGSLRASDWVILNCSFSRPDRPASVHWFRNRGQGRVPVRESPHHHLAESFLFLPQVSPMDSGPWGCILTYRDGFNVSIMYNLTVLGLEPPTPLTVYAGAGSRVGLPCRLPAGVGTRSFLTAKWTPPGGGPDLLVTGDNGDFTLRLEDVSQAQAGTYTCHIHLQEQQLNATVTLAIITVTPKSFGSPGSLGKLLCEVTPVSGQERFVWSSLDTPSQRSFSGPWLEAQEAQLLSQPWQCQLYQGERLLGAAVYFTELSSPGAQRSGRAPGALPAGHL
Protocol: The plates were washed five times after each incubation step with 100 μL PBS-0.05% T. The plates were blocked with 2% BSA (w/v) in PBS-0.1% T for 1 h at room temperature and subsequently washed again. Different concentrations of the fusion polypeptides were added to the wells and incubated for 1 h at room temperature, followed by a wash step. […] After an additional wash step, fluorogenic HRP substrate (QuantaBlu, Thermo) was added to each well and the fluorescence intensity was detected using a fluorescence microplate reader.

[2] = target: T2, human LAG-3-His (LAG-3 with C-terminal polyhistidine tag, ACROBiosystems) (human, UniProt P18627 23-450); experiment: ELISA: LAG-3-His coated, detection anti-Tlc antibody-HRP (an antibody without lipocalin part would not be seen by this detection; see Figure 3C for anti-Fc detection)
T2 construct: Bought protein; also called recombinant LAG-3-His
T2 sequence (looked up): T1 sequence (looked up)

binding result [1]: no binding (tested: 250 nM)
binding result [2]: no binding (tested: 250 nM)
B1: PD-1 specific benchmark antibody (SEQ ID NOs: 3 and 4) (antibody, human IgG4 S228P, kappa, V domains shown)
VH: QVQLVESGGGVVQPGRSLRLDCKASGITFSNSGMHWVRQAPGKGLEWVAVIWYDGSKRYYADSVKGRFTISRDNSKNTLFLQMNSLRAEDTAVYYCATNDDYWGQGTLVTVSS
VL: EIVLTQSPATLSLSPGERATLSCRASQSVSSYLAWYQQKPGQAPRLLIYDASNRATGIPARFSGSGSGTDFTLTISSLEPEDFAVYYCQQSSNWPRTFGQGTKVEIKR
notes: Engineered IgG4 backbone with the S228P mutation; also called PD-1-specific antibody
